As a reminder, the Kd is the equilibrium constant for the complex coming apart. Higher therefore signals lower affinity.

The target of the assay is T1, human MerTK (human, UniProt Q12866 26-499).
T1 construct: also called HuMER
T1 sequence: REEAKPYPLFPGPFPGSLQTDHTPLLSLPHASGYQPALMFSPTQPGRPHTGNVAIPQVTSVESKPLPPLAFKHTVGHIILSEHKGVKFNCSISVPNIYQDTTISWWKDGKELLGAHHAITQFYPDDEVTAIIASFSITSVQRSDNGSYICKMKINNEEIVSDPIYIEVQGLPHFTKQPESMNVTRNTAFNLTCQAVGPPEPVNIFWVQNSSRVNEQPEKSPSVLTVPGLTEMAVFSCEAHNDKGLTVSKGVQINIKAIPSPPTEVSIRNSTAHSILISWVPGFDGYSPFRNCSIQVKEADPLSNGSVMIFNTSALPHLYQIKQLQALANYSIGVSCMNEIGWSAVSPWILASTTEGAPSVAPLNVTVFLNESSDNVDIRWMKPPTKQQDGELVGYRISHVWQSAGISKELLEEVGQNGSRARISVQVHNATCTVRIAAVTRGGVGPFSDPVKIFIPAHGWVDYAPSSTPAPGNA
The assay is described as follows: SPR BIAcore T200, Ab captured, 37C. A general note: SPR reads the build-up and loss of mass on a sensor chip optically.

B1: h9E3.FN.V1 LC P43A (antibody, name in Kabat numbering, V domains shown)
VH: EQQLVESGGGLIQPGGSLRLSCAVSGFSLSSNAMSWVRQAPGKGLEWIGIISSSGSTYSASWAKGRFTISKDSSKNTMYLQMNSLRAEDTAVYFCARVGFFVGYGAYDYGIIHRLDLWGQGTLVTVSS
VL: DAQLTQSPSTLSASVGDRVTITCQSSKSIYNNNWLSWYQQKPGKAPKLLIYDASDLASGVPSRFSGSGSGTEFTLTISSLQPDDFATYYCAGGYSGDSDYAFGGGTKVEIK
notes: Framework variant of h9E3.FN.v1 (human IgG1)
The molecule B1 yielded a Kd of 15 nM. This counts as double-digit nanomolar.

These data come from patent US20220135701A1 (Genentech, published 2022).
